{"source": "patent US20200384079A1", "about": "“Compositions of Fibroblast Growth Factor LIgands and Methods of Treating Patients Undergoing Ischemia-Reperfusion Therapy” (University of Cincinnati, priority 2017, published 2020)", "molecules": {"B1": {"name": "FGF1^ΔHBS: FGF1 mutant carrying the K127D/K128Q/K133V triple mutation in its HS-binding region; reduced heparin-binding affinity (protein)", "chain": "MAEGEITTFTALTEKFNLPPGNYKKPKLLYCSNGGHFLRILPDGTVDGTRDRSDQHIQLQLSAESVGEVYIKSTETGQYLAMDTDGLLYGSQTPNEECLFLERLEENHYNTYISKKHAEKNWFVGLDQNGSCVRGPRTHYGQKAILFLPLPVSSD"}}, "key": {"[1]": {"assay": "ITC of FGF interaction with Sucrose Octasulfate (SOS)", "assay_type": "binding", "from_the_text": "FIGS. 1A-1D: Structure-guided design of the FGF1^ΔHBS construct. (FIG. 1A) Expanded view of the hydrogen bonding interactions (dashed lines) between the HS-binding site of FGF2 and heparin hexasaccharide as observed in the crystal structure. FGF2 is shown as a ribbon diagram with HS-interacting residues rendered in sticks. The three FGF2 residues namely, K128, R129 and K134 that make important hydrogen bonding with HS are boxed. The corresponding three residues in FGF1 are K127, K128 and K133 which were mutated to aspartic acid, glutamine and valine, respectively, to engineer the FGF1ΔHBS construct; (FIG. 1B) FGF1^ΔHBS elutes as a single symmetric peak at its predicted molecular weight from a Superdex 200 sizing column. Retention times of protein standards are given above the chromatogram. (FIG. 1C and FIG. 1D) Analysis of the interactions of wildtype FGF1 and FGF1^ΔHBS with SOS. Indicated solutions of SOS were injected into solutions of wildtype FGF1 or FGF1ΔHBS in the cell. […]\nTo test the impact of the mutations on HS-binding ability of FGF1, isothermal titration calorimetry (ITC) was used to compare the interactions of native FGF1 and FGF1^ΔHBS with Sucrose Octasulfate (SOS), a known surrogate for HS. […] Next, the cardioprotective potential of FGF1^ΔHBS mutant when administered immediately upon reperfusion was evaluated in an in vivo rat model of myocardial infarction. […]"}, "[2]": {"tested_on": "in vivo rat model of myocardial infarction"}, "[3]": {"assay": "Blood clotting time (tail nick)", "assay_type": "in vivo, rat", "settings": "for Clotting time: 15 mins post treatment, single agent; for blood clotting time post-treatment (in words): baseline vs 15 minutes after drug treatment; for effect on anticoagulant activity of heparin (in words): co-administered with unfractionated heparin", "method": "In sets of experiments, blood clotting time was detected at baseline and 15 minutes after drug treatment. In brief, a nick 1-2 mm depth was made at 5 cm and 3 cm of the proximal tail for baseline and post-drug blood clotting time, respectively; the tail nick was blotted with 4×4 gauze every 15 seconds until bleeding totally stopped, and blood clotting time was recorded from the onset of bleeding until it stopped.\nHeparan sulfate proteoglycans or heparin regulates the bioavailability of FGFs. In order to develop a “cardioprotective” FGF as a therapeutic against ischemic heart disease, it was necessary to elucidate the efficacy of these cardiac FGFs in the presence of heparin treatment. Therefore, native rhFGFs (FGF 1, 2, 4, or 5) or vehicle are infused intravenously (at dose indicated above) in conjunction with unfractionated (12 units/kg/hr, i.v.) or low molecular weight heparin (enoxaparin 1 mg·kg, s.c.) during the first 15 minutes of reperfusion (FIG. 12A), and post-ischemic recovery of cardiac function and the degree of myocardial infarction is assessed. […] Unfractionated or low molecular weight heparin is administered alone during early reperfusion to elucidate the cardioprotective effects of heparins against IR injury. Whether FGF administration alters heparin activity is evaluated. To assess this potential interaction, activated clotting time (ACT) is assessed in vehicle-treated or FGF-treated groups in the absence or presence of heparin co-administration. Baseline and 15 minute post-drug treatment ACT is determined. It has been established that a heparin response occurs within 1 minute after an intravenous dose in humans and that no more time is required to achieve a predicted ACT."}, "[4]": {"tested_on": "ERK1/2", "assay": "ERK1/2 activation (phosphorylation) in left ventricle, immunoblot", "assay_type": "in vivo, rat", "settings": "immediately post-treatment", "method": "Hearts from rats treated with saline, native FGF1 or FGF1^ΔHBS in the presence or absence of heparin were collected immediately after administration and at 120 minutes post-treatment for evaluation of downstream signaling. One-half of each snap-frozen heart was powdered and homogenized in protein extraction buffer as previously described by our laboratory. For FGFR1, 150 μg of total protein were loaded onto a 8% SDS-PAGE gel, for ERK1/2 activation, 20 μg of whole cell protein homogenate was loaded onto a 15% SDS-PAGE gel, and for PKCα and PKCδ, […] of whole cell protein homogenate was loaded onto a 10% SDS-PAGE gel and then transferred to nitrocellulose membrane. 0.1% Ponceau S in 5% acetic acid was used to examine the transfer efficiency and loading equality as described previously 43. Membranes were blocked with 5% dry milk and then incubated with primary antibody against phospho-FGFR1 (Y-654, 1:500, Cell Signaling), phospho-ERK1/2 (1:1000, Cell Signaling) or phospho-PKCα (1:500, Santa Cruz) or phospho-PKCδ (1:500, Santa Cruz) followed by incubation with HRP-conjugated secondary goat anti-rabbit antibody (1:3000, Santa Cruz Biotechnology). Membranes were stripped and reprobed with antibodies against total FGFR1 (1:500, Cell Signaling), total ERK (1:1000, BD Transduction Labs) or total PKCα (1:500, Santa Cruz) or PKCδ (1:500, Santa Cruz). Bound antibodies were visualized by ECL system. Activation is indicated as a ratio of phosphorylated protein/total protein. β-actin (1:1000, Cell Signaling) was also used as a loading control.\nConstruction of his-tagged native and heparin-binding modified rhFGFs as well as their expression and purification is performed as previously described using his-tagged expression vectors and nickel-nitrilotriacetic acid resin columns. […] His-tagged FGFs are detected in solid organs by ELISA (FIG. 14) both for FGF and histidine (data not shown), and immunoprecipitation (IP) followed by immunoblot and in plasma by ELISA as described previously. His-tags are widely used because they are small and rarely interfere with function, activity, or structure of target proteins. […] There is no observed difference in total ERK or FGFR1 expression between the treatment groups."}, "[5]": {"settings": "rat; for exogenous FGF1 level targeted to the heart: 10 μg/kg i.v.; for tissue and plasma FGF distribution (in words): i.v."}, "[6]": {"settings": "rat, FGF given at reperfusion with heparin"}, "[7]": {"settings": "rat, given at reperfusion, no heparin co-therapy"}}, "note": "“Also recorded” adds a separate entry of the source. Read-outs that look alike come from different tables or passages of the source.", "data": [{"molecule": "FGF1: native recombinant human fibroblast growth factor 1", "values": [{"measurement": "Kd", "setting": "[1]", "result": 4, "unit": "µM"}, {"measurement": "recovery of contractility (+dP/dt at 120 minutes post-reperfusion normalized to baseline)", "setting": "[2]; rat, FGF1 10 μg/kg i.v. at reperfusion, no heparin", "result": 69, "unit": "%"}, {"measurement": "post-ischemic cardiac function (in words)", "setting": "[2]; [6]", "result": "reduced the post-ischemic improvement of cardiac function"}, {"measurement": "post-ischemic cardiac function (in words)", "setting": "[2]; [7]", "result": "improved relaxation compared to saline treatment"}, {"measurement": "Clotting time", "setting": "[3]", "result": "15 mins post rhFGF1 treatment: 144 +/− 21 sec (n = 7)"}, {"measurement": "blood clotting time post-treatment (in words)", "setting": "[3]", "result": "no significant difference in blood clotting time"}, {"measurement": "effect on anticoagulant activity of heparin (in words)", "setting": "[3]", "result": "does not alter the desired anticoagulant activity of heparin; also recorded: did not alter heparin's anticoagulant properties"}, {"measurement": "ERK1/2 activation (phosphorylation) in left ventricle (in words)", "setting": "[4]; FGF with heparin", "result": "markedly reduced ERK1/2 activation stimulated by FGF1"}, {"measurement": "ERK1/2 activation (phosphorylation) in left ventricle (in words)", "setting": "[4]; no FGF+heparin co-treatment", "result": "significantly increased compared to saline or heparin only treatment"}, {"measurement": "exogenous FGF1 level targeted to the heart", "setting": "[5]; no heparin", "result": "2282 ± 97", "unit": "µg/mL"}, {"measurement": "tissue and plasma FGF distribution (in words)", "setting": "[5]; FGF with heparin co-administration", "result": "significantly decreased in kidney, spleen, heart, liver and plasma"}, {"measurement": "tissue and plasma FGF distribution (in words)", "setting": "[5]; no FGF+heparin co-treatment", "result": "distributed to kidney, spleen, heart, liver, and plasma, while less went to lung and skeletal muscle"}]}, {"molecule": "B1", "values": [{"measurement": "binding to SOS (in words)", "setting": "[1]", "result": "negligible; also recorded: fails to bind SOS"}, {"measurement": "heart rate compared to the saline group (in words)", "setting": "[2]; rat I/R study", "result": "no significant differences in heart rate"}, {"measurement": "post-ischemic cardiac function (in words)", "setting": "[2]; [6]", "result": "improved post-ischemic cardiac function, even in the presence of heparin"}, {"measurement": "post-ischemic cardiac function (in words)", "setting": "[2]; [7]", "result": "significantly improved compared to the native FGF1 cohorts; also recorded: significantly improved post-ischemic cardiac function compared to native FGF1; also recorded: greater improvement in cardiac function compared to FGF1"}, {"measurement": "Clotting time", "setting": "[3]", "result": "15 mins post rhFGF^ΔHBS treatment: 169 +/− 10 sec (n = 10)"}, {"measurement": "blood clotting time post-treatment (in words)", "setting": "[3]", "result": "no significant difference in blood clotting time"}, {"measurement": "effect on anticoagulant activity of heparin (in words)", "setting": "[3]", "result": "did not alter heparin's anticoagulant properties"}, {"measurement": "ERK1/2 activation (phosphorylation) in left ventricle (in words)", "setting": "[4]; no FGF+heparin co-treatment", "result": "significantly increased compared to saline or heparin only treatment; also recorded: significantly higher level of phosphorylated ERK1/2"}, {"measurement": "exogenous FGF1 level targeted to the heart", "setting": "[5]; no heparin", "result": "3073 ± 101", "unit": "µg/mL"}, {"measurement": "exogenous FGF1 level targeted to the heart", "setting": "[5]; with heparin administration", "result": "4336 ± 775", "unit": "µg/mL"}, {"measurement": "tissue and plasma FGF distribution (in words)", "setting": "[5]; no FGF+heparin co-treatment", "result": "mainly went to the heart including atria, left ventricle, and right ventricle; also recorded: greater biodistribution of FGF1^ΔHBS to the left ventricle compared to native FGF1"}]}]}
